± gives the uncertainty stated by the source.
B1: Far upstream element-binding protein 1, residues 98 to 169; numbered along this chain, Q96AE4 (parent)
chain: RSVMTEEYKVPDGMVGFIIGRGGEQISRIQQESGCKIQIAPDSGGLPERSCMLTGTPESVQSAKRLLDQIVE

Variants of: B1
Experiment: abundance fitness (aPCA) (normalised: wild type 0, dead -1); higher = more abundant; growth selection in yeast, the domain comes from the species named
Details: Homo sapiens
RTVMTEEYKVPDGMVGFIIGRGGEQISRIQQESGCKIQIAPDSGGLPERSCMLTGTPESVQSAKRLLDQIVE [S2T] showed an abundance fitness of 0.012 ± 0.03.
Work on RGVMTEEYKVPDGMVGFIIGRGGEQISRIQQESGCKIQIAPDSGGLPERSCMLTGTPESVQSAKRLLDQIVE [S2G] yielded an abundance fitness of -0.003 ± 0.026.
In the case of RPVMTEEYKVPDGMVGFIIGRGGEQISRIQQESGCKIQIAPDSGGLPERSCMLTGTPESVQSAKRLLDQIVE [S2P], the abundance fitness is reported as -0.064 ± 0.031.
RVVMTEEYKVPDGMVGFIIGRGGEQISRIQQESGCKIQIAPDSGGLPERSCMLTGTPESVQSAKRLLDQIVE [S2V] showed an abundance fitness of -0.036 ± 0.029.
In the case of RLVMTEEYKVPDGMVGFIIGRGGEQISRIQQESGCKIQIAPDSGGLPERSCMLTGTPESVQSAKRLLDQIVE [S2L], the abundance fitness is reported as -0.052 ± 0.027.
With RQVMTEEYKVPDGMVGFIIGRGGEQISRIQQESGCKIQIAPDSGGLPERSCMLTGTPESVQSAKRLLDQIVE [S2Q] the abundance fitness was 0.015 ± 0.035.
RAVMTEEYKVPDGMVGFIIGRGGEQISRIQQESGCKIQIAPDSGGLPERSCMLTGTPESVQSAKRLLDQIVE [S2A] showed an abundance fitness of -0.033 ± 0.027.
In the case of RCVMTEEYKVPDGMVGFIIGRGGEQISRIQQESGCKIQIAPDSGGLPERSCMLTGTPESVQSAKRLLDQIVE [S2C], the abundance fitness is reported as -0.085 ± 0.037.
Variant RRVMTEEYKVPDGMVGFIIGRGGEQISRIQQESGCKIQIAPDSGGLPERSCMLTGTPESVQSAKRLLDQIVE [S2R] has an abundance fitness of -0.004 ± 0.025.
RIVMTEEYKVPDGMVGFIIGRGGEQISRIQQESGCKIQIAPDSGGLPERSCMLTGTPESVQSAKRLLDQIVE [S2I] showed an abundance fitness of -0.077 ± 0.048.
RWVMTEEYKVPDGMVGFIIGRGGEQISRIQQESGCKIQIAPDSGGLPERSCMLTGTPESVQSAKRLLDQIVE [S2W] gave an abundance fitness of -0.133 ± 0.035.
Work on REVMTEEYKVPDGMVGFIIGRGGEQISRIQQESGCKIQIAPDSGGLPERSCMLTGTPESVQSAKRLLDQIVE [S2E] yielded an abundance fitness of -0.007 ± 0.037.
RKVMTEEYKVPDGMVGFIIGRGGEQISRIQQESGCKIQIAPDSGGLPERSCMLTGTPESVQSAKRLLDQIVE [S2K] showed an abundance fitness of -0.006 ± 0.039.
With RNVMTEEYKVPDGMVGFIIGRGGEQISRIQQESGCKIQIAPDSGGLPERSCMLTGTPESVQSAKRLLDQIVE [S2N] the abundance fitness was -0.143 ± 0.057.
Variant RMVMTEEYKVPDGMVGFIIGRGGEQISRIQQESGCKIQIAPDSGGLPERSCMLTGTPESVQSAKRLLDQIVE [S2M] has an abundance fitness of 0.038 ± 0.037.
RYVMTEEYKVPDGMVGFIIGRGGEQISRIQQESGCKIQIAPDSGGLPERSCMLTGTPESVQSAKRLLDQIVE [S2Y] showed an abundance fitness of -0.087 ± 0.049.
RHVMTEEYKVPDGMVGFIIGRGGEQISRIQQESGCKIQIAPDSGGLPERSCMLTGTPESVQSAKRLLDQIVE [S2H] showed an abundance fitness of -0.15 ± 0.048.
In the case of RFVMTEEYKVPDGMVGFIIGRGGEQISRIQQESGCKIQIAPDSGGLPERSCMLTGTPESVQSAKRLLDQIVE [S2F], the abundance fitness is reported as -0.026 ± 0.039.
Variant RSEMTEEYKVPDGMVGFIIGRGGEQISRIQQESGCKIQIAPDSGGLPERSCMLTGTPESVQSAKRLLDQIVE [V3E] has an abundance fitness of 0.004 ± 0.029.
RSCMTEEYKVPDGMVGFIIGRGGEQISRIQQESGCKIQIAPDSGGLPERSCMLTGTPESVQSAKRLLDQIVE [V3C] gave an abundance fitness of -0.048 ± 0.033.
With RSDMTEEYKVPDGMVGFIIGRGGEQISRIQQESGCKIQIAPDSGGLPERSCMLTGTPESVQSAKRLLDQIVE [V3D] the abundance fitness was -0.042 ± 0.036.
For RSAMTEEYKVPDGMVGFIIGRGGEQISRIQQESGCKIQIAPDSGGLPERSCMLTGTPESVQSAKRLLDQIVE [V3A], the abundance fitness was -0.058 ± 0.025.
Work on ESVMTEEYKVPDGMVGFIIGRGGEQISRIQQESGCKIQIAPDSGGLPERSCMLTGTPESVQSAKRLLDQIVE [R1E] yielded an abundance fitness of -0.194 ± 0.054.
WSVMTEEYKVPDGMVGFIIGRGGEQISRIQQESGCKIQIAPDSGGLPERSCMLTGTPESVQSAKRLLDQIVE [R1W] gave an abundance fitness of -0.269 ± 0.035.
With CSVMTEEYKVPDGMVGFIIGRGGEQISRIQQESGCKIQIAPDSGGLPERSCMLTGTPESVQSAKRLLDQIVE [R1C] the abundance fitness was -0.013 ± 0.033.
NSVMTEEYKVPDGMVGFIIGRGGEQISRIQQESGCKIQIAPDSGGLPERSCMLTGTPESVQSAKRLLDQIVE [R1N] showed an abundance fitness of 0.043 ± 0.034.
Work on SSVMTEEYKVPDGMVGFIIGRGGEQISRIQQESGCKIQIAPDSGGLPERSCMLTGTPESVQSAKRLLDQIVE [R1S] yielded an abundance fitness of -0.113 ± 0.028.
With ISVMTEEYKVPDGMVGFIIGRGGEQISRIQQESGCKIQIAPDSGGLPERSCMLTGTPESVQSAKRLLDQIVE [R1I] the abundance fitness was 0.01 ± 0.034.
For DSVMTEEYKVPDGMVGFIIGRGGEQISRIQQESGCKIQIAPDSGGLPERSCMLTGTPESVQSAKRLLDQIVE [R1D], the abundance fitness was 0.042 ± 0.048.
Work on VSVMTEEYKVPDGMVGFIIGRGGEQISRIQQESGCKIQIAPDSGGLPERSCMLTGTPESVQSAKRLLDQIVE [R1V] yielded an abundance fitness of -0.035 ± 0.036.
LSVMTEEYKVPDGMVGFIIGRGGEQISRIQQESGCKIQIAPDSGGLPERSCMLTGTPESVQSAKRLLDQIVE [R1L] gave an abundance fitness of -0.131 ± 0.038.
With PSVMTEEYKVPDGMVGFIIGRGGEQISRIQQESGCKIQIAPDSGGLPERSCMLTGTPESVQSAKRLLDQIVE [R1P] the abundance fitness was -0.286 ± 0.062.
In the case of HSVMTEEYKVPDGMVGFIIGRGGEQISRIQQESGCKIQIAPDSGGLPERSCMLTGTPESVQSAKRLLDQIVE [R1H], the abundance fitness is reported as -0.219 ± 0.065.
Variant YSVMTEEYKVPDGMVGFIIGRGGEQISRIQQESGCKIQIAPDSGGLPERSCMLTGTPESVQSAKRLLDQIVE [R1Y] has an abundance fitness of 0.011 ± 0.046.
Work on KSVMTEEYKVPDGMVGFIIGRGGEQISRIQQESGCKIQIAPDSGGLPERSCMLTGTPESVQSAKRLLDQIVE [R1K] yielded an abundance fitness of -0.081 ± 0.035.
With GSVMTEEYKVPDGMVGFIIGRGGEQISRIQQESGCKIQIAPDSGGLPERSCMLTGTPESVQSAKRLLDQIVE [R1G] the abundance fitness was -0.102 ± 0.031.
Work on ASVMTEEYKVPDGMVGFIIGRGGEQISRIQQESGCKIQIAPDSGGLPERSCMLTGTPESVQSAKRLLDQIVE [R1A] yielded an abundance fitness of -0.125 ± 0.043.
QSVMTEEYKVPDGMVGFIIGRGGEQISRIQQESGCKIQIAPDSGGLPERSCMLTGTPESVQSAKRLLDQIVE [R1Q] gave an abundance fitness of -0.513 ± 0.14.

— the Human Domainome abundance scans (Beltran et al. 2025)
